Common to all, as to settings: label: Alexa680 at 5' and 3'
Series [1] has as its target T1, hPUF_MT(R8_N12S,Q16R, R3→R5, R4→R6) (R8 repeat N12S,Q16R).
T1 chain: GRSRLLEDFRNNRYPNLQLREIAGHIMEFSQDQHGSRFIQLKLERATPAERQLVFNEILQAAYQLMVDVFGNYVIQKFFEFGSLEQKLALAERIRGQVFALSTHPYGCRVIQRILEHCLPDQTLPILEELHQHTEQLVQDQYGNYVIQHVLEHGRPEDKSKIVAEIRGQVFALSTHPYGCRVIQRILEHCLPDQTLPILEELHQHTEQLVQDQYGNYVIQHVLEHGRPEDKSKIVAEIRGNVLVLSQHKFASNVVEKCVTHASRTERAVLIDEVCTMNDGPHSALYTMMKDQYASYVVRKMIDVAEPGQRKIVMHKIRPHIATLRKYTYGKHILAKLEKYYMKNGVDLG
Description: EMSA; C>>G. Background: In EMSA bound probe runs differently from free probe, usually more slowly.

Series [2] addresses T2, hPUF_MT(R3→R5, R4→R6).
T2 chain: T1 chain with S295N, R299Q
Description: EMSA; binds U exclusively at R8 position.

Series [3] addresses T3, hPUF_MT(R5:A_13R)(R5:A_13Y)2(R6:U_13Y)3.
T3 chain: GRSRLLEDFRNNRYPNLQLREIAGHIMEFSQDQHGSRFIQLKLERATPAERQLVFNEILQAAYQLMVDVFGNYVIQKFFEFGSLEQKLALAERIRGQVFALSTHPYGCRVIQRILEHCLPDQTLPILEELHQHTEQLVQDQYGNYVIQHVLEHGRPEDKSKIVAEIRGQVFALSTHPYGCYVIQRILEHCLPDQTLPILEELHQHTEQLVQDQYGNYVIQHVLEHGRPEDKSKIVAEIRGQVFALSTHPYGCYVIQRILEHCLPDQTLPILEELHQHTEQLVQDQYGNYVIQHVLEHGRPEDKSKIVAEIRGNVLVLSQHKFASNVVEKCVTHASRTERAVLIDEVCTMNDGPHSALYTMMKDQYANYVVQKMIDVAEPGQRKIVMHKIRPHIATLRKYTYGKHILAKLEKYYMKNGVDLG
Description: EMSA; equivalent.

Series [4] concerns the target T4, hPUF_MT(1-2-5-6-5-6-5-6-7-8) / (R5:A_13R)3(R6:U_13Y)3.
T4 chain: T3 chain with Y181R, Y253R
Description: EMSA; Example 2-5 reported comparable to WT.

Where a chain is given by its changes, count along the chain named.

CCAGAAUCGUAUAUAUUCG (ssRNA) [OTS-2035]: the binding result in series [1] is listed as “binds”; in series [2] it was “no binding”.

Consider CCAGAAUUGUAUAUAUAUUCG (ssRNA) [OTS-1844], for which the values for the binding signal in series [3] and in series [4] were ~1 fold of 13R protein and ~10 fold of WT, respectively.

For the origin of these results see patent US11472855, “RNA-binding protein” (Panitch Schwarze Belisario & Nadel LLP).
